The values that follow come from the DeepSol protein solubility set.

This data set is described as follows: soluble on expression in E. coli; label from the status in PepcDB or PDB records.
As to “MSLAKRIVGSTPKQDGFRMPGEFEPQEKVWMIWPERPDNWRDGGKPVQEAFTNVAKAISQFTPMNVVVSQQQFQNCRRQLPPEITVYEMSNNDAWVRDCGPSFVINDHGEIRGVDWTFNAWGGLVDGLYFPWDQDDLVAQKICEIEHVDSYRTDDFVLEGGSFHVDGQGTVLTTEMCLLSEGRNPQLSKEAIEQKLCDYLNVEKVLWLGDGIDPEETNGHVDDVACFIAPGEVACIYTEDQNSPFYEAAQDAYQRLLKMTDAKGRQLKVHKLCCPVKNVTIKGSFKIDFVEGTMPREDGDICIASYMNFLITNDGVIVPQYGDENDHLALEQVQTMFPDKKIVGVNTVEVVYGGGNIHCITQQEPKREGGSHHHHHH”, the “soluble on expression in E. coli” value was “soluble”. “MSLAKVFTQEEREKIKGQVVELVRQSGRETLRQLEVKTGATRYLMSVLARELVASGDVYNSGYGLFPSEQARKDWQNARKKLSRAKVKKPAVVDPDLIWSSPDGEIRRYDSRLNIICRECRKSEAMQRVLAFYQGNFQEAVLEGHHHHHH”: the “soluble on expression in E. coli” value is “not soluble”. Turning to “MSLAKYKKLFEPYTLNNDVVLKNRLVVAPLTIYDSGPDGELTPAAHNFWRNRFRGFGTWIVPFTNVHPSGIGFESPNAFHEENLPTLKAYATISHEQGAKAIIQLAHAGIHADPAMTKGYDLMGPSNLPYMGVRAMTDSEVREMVNAFAYATELAISAGLDGVEIHGANGWLIQQFVSETYNQRTDHWGGSVEKRFNFPLAIIDAIEAVRHKYHRPDFIVGYRFSPEEPGEVGLTMTETLALVDRLLDKPLQYIHISLWNFYKKIRRGGDVKKTRMEAVHDRINGRLPFIGVGDLFAEEQGLKAFNTGWADLLAVGGSVELNPNLIELIKTGQEDQIQSEFDWNEMDSYRFTPAMLYGTLAGNAMFPKVKEGHHHHHH”, the “soluble on expression in E. coli” value is “soluble”. As for “MSLALEVNMLTGGPTGTYIQIGRDIAKAASACGIEMTVHESAGSLENFLGVRQRPRTQFGIVQSDVLEYLKTFAADDPEVSRAIFGVRIAFPLYDEEVHLLARREIGSLKDLDGKRVSIGVENSGTFLTASLVLDLAEVAPGERRMMNQDDSLKALLAGDIDAFFYVAGAPAKIFASPEIDGERFHLVPVAEEVLRQVYKPTQIPAGSYPFQTGPVDAIAVKAVLMTYGYDPKRNAYHRESCKAVSDIAHVVSTHFPELQQSGHPKWKQVNLTDLPAGWDIGECVNAGLEPGYRLPCDPPEPAVAAPADASAESEANRAYRRQICAVVGEGHHHHHH”, the “soluble on expression in E. coli” value is “soluble”.

For the sequence “MSLAMEHVDVLIVGAGLSGIGAAYHLQKHCPGKTYAILEGREAIGGTWDLFRYPGIRSDSDMYTLGYSFKPWKAAKAIADGPSILDYVRETAREHDIDRHIRFQHLVKRASWSSETATWTVEAEHDGKPVTLTCRFLHMCSGYYRYSAGYTPDFAGTERFKGRIVHPQHWPEDLDYSGKKVVVIGSGATAVTLVPEMAKTAAHVTMLQRSPTYVVSRPAEDGIANWLRSKLPAMTAYGITRWKNVLFQLFFFNLARKKPEKVKERLLGMVRDHLGPGYDVETHFTPRYNPWDQRLCLVPDADLFDAIKSGAASVVTDHIETFTETGIQLKSGKTLDADVIVTATGLQLQLLSGMEVVVDGKVADLSQSMSYKGMMFSDVPNLASVFGYTNASWTLKADLTSEYVCRLLNHMDRTGADYCVPRLDGEVEAAPWLDFSSGYITRSIGHFPKQGTRKPWKVHQNYALDLMTLRMGKVEDGVMQFGRKTGATAKAKPEKALEPAEGHHHHHH”, the “soluble on expression in E. coli” value is on record as “soluble”. Regarding “MSLAMINDSIEQVWRDFSIRPAAEADDATWCRRVYLDVIGRIPSLEELSEFMSDRDSNKRANLVDRLLNDDRYTEEYANHWSTVWTNLLIGRSGGTDRRDLTNRTGMQKYLRDSFAGNKTYDQMTYELVTAEGSTTPGNANFNGAVNFLVDKVNAEKGTLATSSVSRIFLGQQVQCTQCHNHPFNQWKQQKFWEFNAFFRQTRALRRFVDGTQDIESAELVSQDFAGEANDPEDALVFYELRNGLQKVAYPVFTDGTEIEKSGFVEDVNRREELGRLMLQSEYLDKMIVNRMWSMFLGYGFTRPIDDLGPHNPSSHPELLENLGKEFRANSYDLKKLITWITLSRPYQLASTLSASNEIDDPTIGESPKFSRFYLRQMSAEQLYASMVTASNAQSKGSYEQQEAERRRWLSQFVVAFGNDEGTETTTFNGSIPQALMLFNGDLTKNAISLEAGSFLDQLSQTGRSPKDRVTRLFLSGLARRPTKNEVSIASKLLVARKGDEPEMLQDMWWAILNSNEFIMQHEGHHHHHH”, the “soluble on expression in E. coli” value is given as “soluble”. The value for “MSLANGVWSLQPLADMSAAEFRDWQVLLENRTGVVLNEQRRTFLQTSLTARMRELGIGDYHSYYRQVTDGPRGAVEWAILLDRLTVQETRFFRHPPSFELLERYLGERLGREGMPRPWALWSVGCSSGEEPYSMAMCAAQALRGWQRGDFFGVTGTDISLHALQRARAANYPARKLEQLPAEMVERYCERQADGSFSVKTILTGRVCCARLNVLDLAKAPWSGMDVIFCQNLLIYFRRWRRREILNRLAERLAPGGLLVIGVGEVVDWSHPELEPVADERVLAFTRKGEGHHHHHH” was “soluble”; that for “MSLAPRFTVTYFVRAADEAEAKARALDIALEQTVEIPRNVVPKGYVEDEILGRLESLLQDPEGRPGFLAAISYSEDDIGGDFLQFLNIVFGNSSIKPGIKVEDIGLSPGLLDLCKGPRHGIVGLRARAGIGEKPLLMSAIKPAGLSTTELARLAYDFALGGMHFVKDDHGLVDQKTAPFEERLKACIEAVGEANAKSGGRTSFVPNITGPATAIIERAKQAQEYGAGGVMIAPALAGYDIVRTLAADPDFSLPIVSHPAFSGANVVSPDCGFTHRAFFGTLHRLMGADAVVYPNFGGRFGFTREECQSIAKTCSVDMGGPKAIVAAPGGGMTFARIPEMREAYGNDIMYLVGGALLSEPDLVSACKRLVAATEEGHHHHHH” was “soluble”; that for “MSLAPRLKLRDITFFERPVQFARPFRFGAITINATTQLFVRVEIEVEGRGSAVGASAELLVPKWFDKRPEFSPAQTVDGLRRSLEIARGLYLARTGFLTAFDLHAACIGAQIATCAKKNIPALAAAYGLAEIDKAILDALLRGVETGFFDGMAGNVAGIDARLSPDLKDAEIAAFLSSRKPLPRVAIRHTVDLDDTVEGKGGVADAHENAGASYFKLKLRGDPAADAARLARIGKELDTLGRSYKVTLDANEQYADLAALQALMDRLDHDSDLRPIASRLLYVEQPMPRDITRQSPLGSLAARGFIIDEADDSYDAFPAARALGYHGISSKSCKGLYKSIVSATRAAKWSGGGEKFFVTGEDLTCQAGLAVQQDLALGAFLGVTHAERNGHHYVDGFGDTPAAEAAAFAAAHPDLYADAGQGIRLSIHDGDLLTGSLHAAGFATSVHPDWSALRPLEQPTSLQEQLAEGHHHHHH” was “soluble”.

Turning to “MSLASISPQGSMSLLSQLEIERLKASSNSQLYKLFRNCCLAVLNAGSHTDSSADIYDSYKDFEVNIIRRERGIKLELIEPPEEAFVDGEVIVGIRELLESVLRDILFTGERYSETDLEHADSATLTHVVFDILRNARTLRPQEEPNMVVCWGGHSINEIEYKYTKDVGYHIGLRGLNICTGCGPGAMKGPMKGATIGHAKQRVEGGRYLGLTEPGIIAAEPPNPIVNELVILPDIEKRLEAFVRCAHGIVIFPGGAGTAEELLYLLGILMHPDNQRQSLPVILTGPASSRDYFEALDEFIGATIGDEARQLYKIIIDDPAAVAQHMHAGMAAVKQYRRDSGDAYYFNWTLKINEEFQRPFSPTHENVAALNLHPDQPKERLAADLRRAFSAIVAGNVKDEGIRQIRKNGVFTIHGEQSLMKRLDELLRAFVEQGRMKLPGSVYNPCYKVITDEGHHHHHH”, the “soluble on expression in E. coli” value is given as “soluble”. For “MSLASIVSVSSYPPPYLLKQETTTEFAKELFQEDFRDIERLLKSFSNGQIEERQFAVPLDWFRQDHSLQEKNDTYIKLATMFSVEVVRQCLQSNVFLKKPVAEEEIDTIVFVSSSGMATPSIEARMMNELPFSPHTKRVPMWGLGCAGGAAGMSRAYEYCRAFPRANVLVVCVELCSLTFQRQDRTKSNLIGASLFSDGVACALVSGDESDVLGRMKMPTRPLILGSSSTLMPDSEQVMGWDVKDTGLHVVFSRDIPNIIRHWLRPNVERFLETYRLSLEQIEAFIAHPGGRKVLEAYEEALSFSDEMTEYSRDILRHHGNMSSPTVLYVLEKFMKDTRDPGQYGLMAALGPGFCSELVLMQWEAVHEGHHHHHH”, the “soluble on expression in E. coli” value is reported as “soluble”.

As to “MSLASRRTDLIGMIVPDARQPFFGEMAHAVEQAAAERGKMVLVGNSDYVAEREVHYLRAFLGMRVSGLILVSHALNNQAAAEIEAWDARVVLLHERPELIDDVAVVTDDIGGAQLATRHLLEHGYAYVACLGGTAETPSVGDPVSDHVEGWRRAMQEAGIPTEGKLFEAPYNRYDAYQVGLELLAGPNRPPAIFCSTDDQAIGVLRAARELRIDVPGELAVAGFDDVKEAALTDPPLTTIASDRSAMARAAVDLVLDDGLRVAGSRRERLKLFPSRLVVRRSCGCAPQETPGSEGHHHHHH”, the “soluble on expression in E. coli” value is reported as “soluble”.

Turning to “MSLASTEEETQAVMKVYSKEDYSVVNRFESHGGGWGYSAHSVEAIRFSADTDILLGGLGLFGGRGEYTAKIKLFELGPDGGDHETDGDLLAETDVLAYDCAAREKYAMMFDEPVLLQAGWWYVAWARVSGPSSDCGSHGQASITTDDGVIFQFKSSKKSNNGTDVNAGQIPQLLYRLPTSDGSTSKGKQQTSEPVHILKRSFARTVSVECFESLLSILHWSWTTLVLGVEELRGLKGFQFTATLLDLERLRFVGTCCLRLLRVYTCEIYPVSATGKAVVEETSKLAECIGKTRTLLRKILSEGVDHCMVKLDNDPQGYLSQPLRLLEAVLQECHNTFTACFHSFYPTPALQWACLCDLLNCLDQEANFKTSSSRLLAAVMSALCHTSVKLTSLFPIAYDGEVLLRSIVKQVSTENDSTLVHRFPLLVGHMEKLSQSEENISGMTSFREVLEKMLVIVVLPVRNSLRRESELFSSHLVSNTCGLLASIVSELTASALGSEVDGLNSLHSVKASANRFTKTSQGRSWNTGNGSPDAICFAVDKPGIVVVGFAVYGGGGIHEYELEVLVDDSEHAGDSTHSHRWTSLELVKGTYTTDDSPSDIAEIRLDKVVPLKENVKYAVRLRNYGSRTANGDGGMTTVQCPDGVTFTFSTCSLSSNGTNQTRGQIPQILYYRSEEGHHHHHH”, the “soluble on expression in E. coli” value is “soluble”. For “MSLATLKDVAELAGVGLSTASRAISGKGPVSADAAARVKAAIAELNFRPSSIGRAMATQQLGIIGLFVPTFFGSYYGTILKQTDLELRAVHRHVVVATGCGESTPREQALEAVRFLIGRDCDGVVVISHDLHDEDLDELHRMHPKMVFLNRAFDALPDASFCPDHRRGGELAAATLIEHGHRKLAVISGPFTASDNVERLDGFFDELARHGIARDSVPLIESDFSPEGGYAATCQLLESKAPFTGLFCANDTMAVSALARFQQLGISVPGDVSVIGYDDDYSAAYAAPALTSVHIPTAELTQNAVRWLINQCYGTKWEIFREFPVTVSMRASVAREGHHHHHH”, the “soluble on expression in E. coli” value was “soluble”. Take “MSLATQAVSLARVRGPLALAALTLLGACSTRTAVPTPAPVAGSPSVAPESPRPPEVASGYRTGMTTAYAEQHMAAAANPLAAEAGRRILRQGGSAIDAAIAMQAVLTLVEPQASGIGGGAFLLYWDGKRVQAYDGWETAPAGADENLFLRPDGTSMGLSEARIGGRAVGVPGVLRALELAHRRYGKLPWTRLLQPAVELAEQGFPVSPRLYTQIAADPFIAGSPEMAAYFLTPQGKPKPVGTIVRNPQLAQTLREIARHGPGAFYAGPIAADIVKRVSGGANPGTLSLADLRGYRAKERDPICADYQRWKVCGMPPPSSGGIAIAQMLGTLQALAARDPKYALAAMAPRETTRAAGLEPSVDAVHVVSEAGRQADADRGLYVADADFVPVNVKGLTDPGYLTLRAGLIGDRSTGRADPGTPPGTSIALAPDRSPPRVSTSQIVAVDNAGGAVSMTTAIDSDFGAHLMVRGFVLNSGLTDFSFVPNDGGKPVANRVQAGKRPRSSMAPTLVFERDSGRLVAALGSPGGSQSIEYVSKTLIGLLDWDMDVQSAINLPNFGSRNGPTEVERGLVTQPLVQGLKARGHDVAQIEMTSGTQAIVRRRRDDGRWGWAGGADPRREGVALGDEGHHHHHH”: the “soluble on expression in E. coli” value was “not soluble”.
